# Measured values reported in article PMC6278290, “Biochemical and Functional Characterization of Anthocyanidin Reductase (ANR) from Mangifera indica L” (Molecules, 2018).
# Residue numbers refer to the chain shown, from its start. Numbers in names are those of the source.
# B1: MiANR1-3 (Mangifera indica; S2A) (protein)
# chain: MAAQQTAKNTACVVGGTGFVASLLIKLLLQKGYSVSTTVRDPDNQQKISHLLSLQELGELKIFGADLTDEGSFDAPIAGSDIVFHVATPVNFASEDPENDMIKPAIQGVENVLKACAKAKTVKRVILTSSAAAVTINNQDGTGLVMDEKHWTDVEFLSSAKPPTWGYPVSKTLAERHAWKFAQENNIDLITIIPSLMAGPSLTPDIPSSLNLAMSLISGNEFLTNALKGMQMLSGSISIAHVEDVCRAHIFLAEKESASGRYICCAVNTSVPELAKFLHQRYPQYKVPTDFGDFPSKPKLLISSGKLISEGFSFKFGIEEIYDQTVEYFKAKGVL
# notes: S2A from the NcoI site; C-terminal His6 tag (pET28b), E. coli BL21(DE3) pLysS, Ni-NTA purified; about 37 kDa on SDS-PAGE
# B2: MiANR1-1 (Mangifera indica; S2A) (protein)
# chain: B1 chain with D43G, Q46K, E110G, V169A, E184D, H279Q, G305E
# notes: as for B1
# B3: MiANR1-2 (Mangifera indica; S2A) (protein)
# chain: B1 chain with V169A, H279Q, G305E
# notes: as for B1
# Experiments:
# purified protein [1] = substrate: NC(=O)C1=CN([C@@H]2O[C@H](COP(=O)(O)OP(=O)(O)OC[C@H]3O[C@@H](n4cnc5c(N)ncnc54)[C@H](OP(=O)(O)O)[C@@H]3O)[C@@H](O)[C@H]2O)C=CC1; experiment: purified protein; assay type: biochemical, Mangifera indica; conditions: 100 μM cyanidin, 100 mM citrate buffer pH 4.0, 30 °C, 20 min, substrate inhibition at 1.25-3.75 mM, varied: cofactor
# purified protein [2] = substrate: Oc1cc(O)c2cc(O)c(-c3ccc(O)c(O)c3)[o+]c2c1; experiment: purified protein; assay type: biochemical, Mangifera indica; conditions: 1 mM NADPH, 20 min
# [3] = 100 mM citrate buffer pH 4.0, 30 °C
# [4] = 100 mM phosphate buffer pH 3.0, 30 °C
Protein,Km (purified protein [1]),Vmax (purified protein [1]),Km (purified protein [2]; [3]),kcat/Km (purified protein [2]; [3]),Km (purified protein [2]; [4]),kcat/Km (purified protein [2]; [4])
B1,18.98 ± 1.18 µM,0.019 µmol/min/mg,80.43 ± 5.85 µM,401000 M⁻¹ s⁻¹,,
B2,,,,,48.32 ± 3.45 µM,330000 M⁻¹ s⁻¹
B3,18.14 ± 1.4 µM,0.0227 µmol/min/mg,116.4 ± 4.42 µM,363000 M⁻¹ s⁻¹,,
